Experimental data reported in the supplement of paper PMC10567573.
± gives the standard deviation.

Assay: protein stability index of a GFP-peptide fusion (GPS, HEK-293T) (PSI 1-6); higher = more stable
[1] = treatment: DMSO, c terminus: a fixed tail appended
[2] = treatment: MLN4924 1 uM, 8 h, c terminus: a fixed tail appended
[3] = treatment: DMSO, c terminus: native
[4] = treatment: MLN4924 1 uM, 8 h, c terminus: native
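Also: 24-mer peptide tiles fused after GFP, lentivirally expressed, FACS-sorted into six equal bins by GFP/DsRed ratio, decoded by Illumina sequencing, PSI is the read-weighted mean bin number.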

Sequence	protein stability index [1]	protein stability index [2]	protein stability index [3]	protein stability index [4]
HRVKLTNSTLDPHGHLILHSMHKY [TBX6]	2.37 ± 0.35	2.71 ± 0.2	–	–
HSEGRVEVYYDGQWGTVCDDDFSI [LOXL2]	3.23 ± 0.33	3.56 ± 0.33	–	–
HSEILKYFQSVTSNRWLMVKIFLI [STX5]	2.32 ± 0.36	2.4 ± 0.43	–	–
HSEVVEELVSADVIDLFDEQGLSA [RIPK4]	5.02 ± 0.52	4.98 ± 0.52	–	–
HSGQVTILKLEQENCTLVTTFRGH [WDFY2]	2.35 ± 0.26	2.29 ± 0.28	–	–
HTDSKYEHAIAEAQKNMYFKTRLK [ZNF396]	3.8 ± 0.22	3.5 ± 0.32	–	–
HYWELDVDNSCDWALGVCNNSWIR [TRIM43]	2.25 ± 0.21	2.2 ± 0.34	–	–
IADLFVADQRSRMLSIFYFAIPVG [SPNS1]	3.08 ± 0.65	2.94 ± 0.41	–	–
IAIARLRGSDLKVLEVTEESIDFD [FBXO33]	2.73 ± 0.3	2.77 ± 0.47	–	–
IAPVLKLASHHNHFSQIVIFMLCT [OR10K2]	3.25 ± 0.75	3.2 ± 0.83	–	–
IASEPTNKHLFYAEDFSTMDEISE [MATN2]	4.57 ± 0.27	4.59 ± 0.23	–	–
ICDPGLTSFEPEALGNLVEGMDFH [CAMK2B]	3.92 ± 0.23	4.07 ± 0.13	–	–
ICGFLKERCFRGSSYPVCVSKVVK [OAS1]	2.62 ± 0.31	2.13 ± 0.3	–	–
IDEQDSYIQSRADTMQNIESTIVE [STX5]	5.23 ± 0.31	5.14 ± 0.12	–	–
IDKNTQLTLQVYREQADSCREQLD [TRIM14]	4.58 ± 0.21	4.18 ± 0.79	–	–
IENNKYGWFWVCPGGGDICMYRHA [ZC3H15]	2.52 ± 0.32	2.15 ± 0.53	–	–
IERMKQIYQQLSRYRGLGLLASVP [CRY1]	2.3 ± 0.49	2.36 ± 0.35	–	–
IFIARRSLLDELLEVDHIRTIYHM [SOAT1]	2.8 ± 0.58	2.66 ± 0.75	–	–
IFYDLVRQINRKTPVPGKARKKSS [RAP1B]	2.47 ± 0.47	2.37 ± 0.4	–	–
IGCGNFGELRLGKNLYTNEYVAIK [CSNK1G3]	2.07 ± 0.18	2.12 ± 0.44	–	–
IGPIHLNEIQCTGNEKSIIDCKFN [LOXL2]	3.63 ± 0.15	3.67 ± 0.23	–	–
IGVGLGFELQRLEFDLSPLNLDIG [AASDHPPT]	2.3 ± 0.55	2.29 ± 0.24	–	–

Sequence	protein stability index [1]	protein stability index [2]	protein stability index [3]	protein stability index [4]
IHERTHERERLYPFSECGEAVSDS [ZNF263]	4.81 ± 0.41	4.88 ± 0.22	–	–
IISSDELNVRSEEQVFNAVMAWVK [KLHL20]	2.28 ± 0.22	2.42 ± 0.32	–	–
IIYVASNHFVWRLIPVPMATQIQQ [VPS39]	3.19 ± 0.35	3.09 ± 0.65	–	–
IKPPCIPNGKENFSGGTSLWQNI [CAMK2D]	–	–	3.2 ± 0.13	3.2 ± 0.21
IKSKKKLLQIIDTTLLKCYLHTNV [VPS39]	3.04 ± 0.37	2.86 ± 0.52	–	–
ILCNKTAYQEVFKPENISLRNKLR [SMG5]	2.46 ± 0.24	2.77 ± 0.23	–	–
ILDSLLFFYDCSNNPISEHFHPTV [TENT5C]	3.15 ± 0.71	3.13 ± 0.68	–	–
ILHIPQVTKLCVQFLNDQISVQNY [KLHL14]	2.54 ± 0.45	2.51 ± 0.52	–	–
ILREIRHPNIITLHDIFENKTDVV [DAPK3]	2.47 ± 0.21	2.54 ± 0.2	–	–
ILRLPLEHACTVRNLARSQSVKMK [TAF7L]	2.92 ± 0.18	3.19 ± 0.34	–	–
IPAAVLAGFTGSGPIQLWQFLLEL [ETS2]	2.69 ± 0.62	2.5 ± 0.25	–	–
IPQGICPVGRSWHSLTPVSSDHLF [KLHDC2]	2.68 ± 0.28	2.52 ± 0.21	–	–
IQLIKTNKKHIHSRSTLECAYRTH [SMG5]	2.38 ± 0.096	2.54 ± 0.1	–	–
IQWKNHDQNNHNTDRSSHKDSMN [EDNRA]	–	–	5.36 ± 0.29	5.49 ± 0.23
IRISMSHEEEPLGTAGPLALARDL [GMPPB]	3 ± 0.053	3.27 ± 0.34	–	–
IRRPVNVPIDIFSEEIRFYQLGEE [KCNA3]	2.59 ± 0.56	2.75 ± 0.37	–	–
ITCSSTMSYSCCLPSLGCRTSCSS [KRT34]	2.19 ± 0.16	2.1 ± 0.32	–	–
ITHSTYSLPASSYSQDPVYANGGL [NOL4L]	2.96 ± 0.32	3.18 ± 0.2	–	–
ITIEPGTSYRLQGLKPNSLYYFRL [PTPRD]	2.63 ± 0.12	2.61 ± 0.43	–	–
IVFPEKLNGSVLPGSGAPARLLCR [ADAMTS4]	2.87 ± 0.26	2.59 ± 0.4	–	–
IWFRVPYSIISLLLKDKVRERIQI [PTPN9]	2.56 ± 0.65	2.77 ± 1.5	–	–
IYSVVDLGMYQKVTSYCRSATLVG [SLC19A2]	2.69 ± 0.42	2.74 ± 0.69	–	–

Sequence	protein stability index [1]	protein stability index [2]	protein stability index [3]	protein stability index [4]
IYVIGDLDTGTNYDYVREFKRSTG [GAN]	2.18 ± 0.43	2.04 ± 0.43	–	–
IYVVGGYSWNNRCMVEIVQKYDPD [KLHL13]	2.99 ± 1.6	2.91 ± 1.3	–	–
KCKSTLSPPEASPGPPAAPRARRR [PWWP2B]	5.19 ± 0.12	5.34 ± 0.26	–	–
KCLLYCNGVLEPLYLCPNGARCAT [SLC25A39]	2.24 ± 0.11	2.11 ± 0.27	–	–
KDAAKQIAWIKDKLLHIYYQNSID [PDS5B]	1.78 ± 0.31	2.39 ± 0.26	–	–
KDEPSKYNQQQALIDQRYFQVLCS [CEP70]	3 ± 0.063	3.13 ± 0.24	–	–
KDGVTMAPAFRLSLKAKVSDNMSH [FSD1]	3.56 ± 0.35	3.75 ± 0.26	–	–
KDIQPYMRRMVATWMLEVCEEQKC [CCND2]	2.33 ± 0.24	2.65 ± 0.3	–	–
KDIVQTVRSRLEEAGIKVHDVRLN [TENT5C]	2.44 ± 0.35	2.78 ± 0.28	–	–
KDPSAIGKKQVPCFASMLTKKLHF [CASP6]	2.23 ± 0.14	2.36 ± 0.16	–	–
KDTDLARVRRFQVVEVTKGILEHV [M1AP]	2.55 ± 0.47	2.86 ± 0.56	–	–
KEDQFGRTPLMYCVLADRLDCADA [INVS]	3.12 ± 0.41	3.26 ± 0.3	–	–
KEGGQAGSGQRVPALEEAPDSHQK [ELOA2]	5.32 ± 0.21	5.47 ± 0.28	–	–
KELRKDYQGPGTRRLQEVLGVQTG [DYRK1B]	4.07 ± 0.16	4.42 ± 0.17	–	–
KEYEKALKYVRGLLQTEPQNNQAK [FIS1]	2.86 ± 0.14	3 ± 0.45	–	–
KGCKVTLPEKPVKLASHTRDTTGV [FBF1]	4.21 ± 0.24	4.58 ± 0.17	–	–
KGKKLYPVVSAVWGHCEVTMRYIN [SPSB4]	2.43 ± 0.82	2.65 ± 0.6	–	–
KGRTIYLEDIYVMPEYRGQGIGSK [SAT2]	2.44 ± 0.31	2.79 ± 0.12	–	–
KHLARQLEEKDRVLKKQDAFYKEQ [CHCHD3]	4.33 ± 0.2	4.57 ± 0.24	–	–
KHRIRRVLIVDWDVHHGQGTQFTF [HDAC6]	3.35 ± 0.42	3.14 ± 0.83	–	–
KICESLNVPVDDSLVKELLRMCSH [EFHC1]	2.11 ± 0.21	2.09 ± 0.44	–	–
